These results are taken from IntAct's records for PubMed 19351902.

First the molecules themselves.
B1: Short transient receptor potential channel 3 (Mus musculus), Q9QZC1 (parent)
chain: MSTKVKKCREPARVTLPAPEEEEDGEAEGGESQRRRRGWRGVNGGLEPPCPRAPPSPGPDASSEGSPSRWRTAGMRDKGRRQAVRGPAFMFGARGPSLTAEEERFLDAAEYGNIPVVRKMLEESRTLNVNCVDYMGQNALQLAVGNEHLEVTELLLKKENLARIGDALLLAISKGYVRIVEAILGHPGFAASRRLTLSPCEQELRDDDFYAYDEDGTRFSPDITPIILAAHCHKYEVVHLLLLKGARIERPHDYFCRCSDCAEKQRLDAFSHSRSRINAYKGLASPAYLSLSSEDPVLTALELSNELAKLANIEKEFKNDYRKLSMQCKDFVVGVLDLCRDSEEVEAILNGDLESAEPLERHGHKASLSRVKLAIKYEVKKFVAHPNCQQQLLTIWYENLSGLREQTIAIKCLVVLVVALGLPFLAIGYWIAPCSRLGKILRSPFMKFVAHAASFIIFLGLLVFNASDRFEGITTLPNITVIDYPKQIFRVKTTQFTWTEMLIMVWVLGMMWSECKELWLEGPREYIVQLWNVLDFGMLSIFIAAFTARFLAFLQATKAQQYVDSHVQESDLSEVTLPPEVQYFTYARDKWLPSDPQIISEGLYAIAVVLSFSRIAYILPANESFGPLQISLGRTVKDIFKFMVLFIMVFLAFMIGMFILYSYYLGAKVNPAFTTVEESFKTLFWSIFGLSEVTSVVLKYDHKFIENIGYVLYGIYNVTMVVVLLNMLIAMINSSYQEIEDDSDVEWKFARSKLWLSYFDDGKTLPPPFSLVPSPKSFVYFIMRITNFSKCRRRRLQKDLELGMGNSKSRLNLFTQSNSRVFESHSFNSILNQPTRYQQIMKRLIKRYVLKAQVDKENDEVNEGELKEIKQDISSLRYELLEDKSQATEELAILIHKLSEKLNPSVLRCE

Variants of B1 are the subject of this assay. Particulars: with kpcg_human PRKCG.
Take T635A: the “effect of a mutation on the interaction” value was “disrupting interaction strength”.
